Test results from the supplement of paper PMC9170038.

Tested on: MS2 coat protein
Assay: apparent KD of MS2 coat protein; designed switch direction (-1 OFF switch, 1 ON switch): -1; higher = weaker reporter binding
Method in brief: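 Apparent KD, taken as the median over clusters for each design, was obtained by curve-fitting normalised cluster fluorescence. Designed RNA switches had been transcribed on Illumina chips by stalled E. coli RNA polymerase and titrated with SNAP-549-labelled MS2 coat protein, doubling from 0.7 or 1.5 nM to 3 µM.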

[1] = Eterna round: R95, input ligand: microRNA oligo, concentration not stated
[2] = Eterna round: R95, input ligand: FMN 200 uM
[3] = Eterna round: R95, input ligand: none
[4] = input ligand: microRNA oligo, concentration not stated

| Sequence | apparent KD of MS2 coat protein [1] | apparent KD of MS2 coat protein [2] | apparent KD of MS2 coat protein [3] | apparent KD of MS2 coat protein [4] | apparent KD of MS2 coat protein (input ligand: FMN 200 uM) | apparent KD of MS2 coat protein (input ligand: none) |
| --- | --- | --- | --- | --- | --- | --- |
| GCACGGUAAGUGAGGAUAUACCUCUGGAUACAGAGGUAGAAGGCACAUGAGGAUCACCCAUGUCCUAGCCGUGC [Fiskers BMX 4 - 88] (puzzle: Brourd's mod of Exclusion 4) | 32.9 nM |  |  |  |  |  |
| GCACGGUAAGUGAGGAUAUACCUCUGGAUACAGAGGUAGAAGGCACAUGAGGAUCACCCAUGUCUAAGCCGUGC [Fiskers BMX 4 - 83] (puzzle: Brourd's mod of Exclusion 4) | 14.7 nM |  |  |  |  |  |
| GCACGGUAAGUGAGGAUAUACCUCUGGAUACAGAGGUAGAAGGCACAUGAGGAUCACCCAUGUUCAAGCCGUGC [Fiskers BMX 4 - 85] (puzzle: Brourd's mod of Exclusion 4) | 13.2 nM | 14.5 nM | 14.4 nM |  |  |  |
| GCACGGUAAGUGAGGAUAUACCUCUGGAUACAGAGGUAGAAGGCACAUGAGGAUCACCCAUGUUCCAGCCGUGC [Fiskers BMX 4 - 86] (puzzle: Brourd's mod of Exclusion 4) | 14.7 nM |  |  |  |  |  |
| GCACGGUUGCUAGGAUAUCCUUGCGAUUAGCAAGGAGAAGGAGCACAUGAGGAUCACCCAUGUACCUCAAUAAUCCAUCCGUGC [Eli exng1 - 029] (Eterna round: R96, puzzle: Exclusion NG 1) |  |  |  | 11 nM |  |  |
| GCACGGUUGGUAGGAUAUCCUUGCGAUUAGCAAGGAGAAGGACCACAUGAGGAUCACCCAUGUACCUCAAUUAUCCUUCCGUGC [Eli exng1 - 025] (Eterna round: R96, puzzle: Exclusion NG 1) |  |  |  | 10.9 nM | 13.7 nM | 14.9 nM |
| GCACUCUUGUGAGGAUAUCGUUAAGGGACUUAACGAGAAGGUACAUGAGGAUCACCCAUGUGGAUCCUCCCGUUUGGAUCACUU [Eternabot solution 3] (Eterna round: R96, puzzle: Exclusion NG 1) |  |  |  | 103 nM | 177 nM | 112 nM |
| GCACUGACAGGAUAUACAUGAGGAUCACCCAUGUGACCCUUGGAGUACUCGCGUACUCGUAGAAGGGUCUGUGC [Omei Ex3 Model Bachelor's Dilema v37] (Eterna round: R97, puzzle: Exclusion 3) |  |  |  |  | 95.8 nM | 35.9 nM |
| GCACUGCGAGGAUAUACAUGAGGAUCACCCAUGUGUCGGCAGACAUGGUUAAUCUAAGGUAGAAGGCGCGUAAA [JR_Ex3_Sub004] (Eterna round: R97, puzzle: Exclusion 3) |  |  |  |  | 16.3 nM | 993 nM |
| GCAGAGGUAGUGAGGAUAUGCUCUACCUCGGUAGAGCAGAAGGCACAUGAGGAUCACCCAUGUGAUUCUUCUGC [Omei Ex4B B9] (Eterna round: R97, puzzle: Brourd's mod of Exclusion 4) |  |  |  |  | 15 nM | 13.2 nM |
| GCAGCAAAUUCCACUAAAACCACAUGAGGAUCACCCAUGUCUCAGGAUAUGGUCUGGAUUACAGGCCAGAAGGGAGAAAGCUGC [Eli exng3 - 056] (Eterna round: R96, puzzle: Exclusion NG 3) |  |  |  | 9.52 nM | 12.3 nM | 14.8 nM |
| GCAGCAACUCUAAUUAAAACCACAUGAGGAUCACCCAUGUCUCAGGAUAUGGUCUGGAUUACAGGCCAGAAGGGAGAAAGCUGC [Eli exng3 - 051] (Eterna round: R96, puzzle: Exclusion NG 3) |  |  |  | 14.9 nM | 15.9 nM | 17 nM |
| GCAGCAUAGAUAACAUACUGUUACAUGAGGAUCACCCAUGUACAGGAUAUGGUCUGGAUUACAGGCCAGAAGGGUACAAGCUGC [Eli exng3 - 021] (Eterna round: R96, puzzle: Exclusion NG 3) |  |  |  | 8.63 nM | 10.8 nM | 12.1 nM |
| GCAGCAUAUGUAGGAUAUCUGCACGUGUAGUGCAGAGAAGGACAUGAGGAUCACCCAUGUAAUUAAGAUCAAUUAUUAAGCUGC [ENG1/4-A3] (Eterna round: R96, puzzle: Exclusion NG 1) |  |  |  | 17.3 nM | 37.7 nM | 22.2 nM |
| GCAGCGUAUGUAGGAUAUCGGUCAGUUUCUGAUCGAGAAGGACAUGAGGAUCACCCAUGUAAAUUACCGUCUUUGACGGGCUGC [JL ENG1 3.68] (Eterna round: R96, puzzle: Exclusion NG 1) |  |  |  | 14.1 nM | 20.5 nM | 18.1 nM |
| GCAGCUAACACAGAUAUGUGCACAUGAGGAUCACCCAUGUCACAGGAUAUGGACUGGAUUACAGUCCAGAAGGGUGAAUGCUGC [Zipper Style 6] (Eterna round: R96, puzzle: Exclusion NG 3) |  |  |  | 7.97 nM | 10.2 nM | 14 nM |
| GCAGCUAAUCGAGGAUAUCAGCACGUGUAGUGCUGAGAAGGCGACAUGAGGAUCACCCAUGUGAUCAAUUAAUAUUAAUGCUGC [ENG1/11-A3] (Eterna round: R96, puzzle: Exclusion NG 1) |  |  |  | 308 nM | 893 nM | 414 nM |
| GCAGCUAAUGCAGGAUAUCAGCACGUGUAGUGCUGAGAAGGGCACAUGAGGAUCACCCAUGUGAUCAAUUAAUAUUAAUGCUGC [ENG1/11-B3] (Eterna round: R96, puzzle: Exclusion NG 1) |  |  |  | 16.2 nM | 328 nM | 20.5 nM |
| GCAGGAUAAGUGAGGAUAUACCUAUGGAUACAUAGGUAGAAGGCACAUGAGGAUCACCCAUGUUACUCGCCUGC [Fiskers BMX 4 - 75] (puzzle: Brourd's mod of Exclusion 4) | 12.9 nM | 41.7 nM | 10.9 nM |  |  |  |
| GCAGGAUAAGUGAGGAUAUACCUCUGGAUACAGAGGUAGAAGGCACAUGAGGAUCACCCAUGUCAUUCACCUGC [Fiskers BMX 4 - 77] (puzzle: Brourd's mod of Exclusion 4) | 14.4 nM |  |  |  |  |  |
| GCAGGUCAAGGAUAUACAUGAGGAUCACCCAUGUGAUUAGCAGUCCUCGGACUGCAAUGUAGAAGGUGACCUGC [E3/2-C2] (Eterna round: R97, puzzle: Exclusion 3) |  |  |  |  | 2140 nM | 329 nM |
| GCAGUAACAUGAGGAUCACCCAUGUGGAACUCGUGAAUAAGCGAGGAUAUCUCAAGAUAUCAAAGAGAGAAGGCGUACACUGCA [Qulege] (Eterna round: R96, puzzle: Exclusion NG 3) |  |  |  | 96.1 nM | 490 nM | 142 nM |
| GCAGUAUGAGUUAGGAUAUGAUGAUUUGAAAUGGGUCAGAAGGAACUUGAGGAUCACCCAAGUAAUGAAUUGGU [JR_BMEx4_Sub073] (Eterna round: R97, puzzle: Brourd's mod of Exclusion 4) |  |  |  |  | 94.6 nM | 52.7 nM |
| GCAGUGACAUGAGGAUCACCCAUGUGGAACUCGUGAAUAAGCGAGGAUAUCUCAAGAUAUCAAAGAGAGAAGGCGUACACUGCA [Diorso] (Eterna round: R96, puzzle: Exclusion NG 3) |  |  |  | 159 nM | 731 nM | 229 nM |
| GCAGUGCGAGGAUAUACAUGAGGAUCACCCAUGUGAGAAGAAUAAGUGAGGAAGAAAAGUAGAAGGCGCGUUGG [Mat - Exclusion 3 - Mod of Salish D68] (puzzle: Exclusion 3) | 47.4 nM | 71.8 nM | 54.6 nM |  |  |  |
